Source: article PMC6699855 (The Journal of Biological Chemistry, 2019)
“Also recorded” adds a separate entry of the source. Positions of bridges follow the written chain, without caps; N, C: chain ends. Non-standard residues stand in square brackets, D forms with d. Residues, ends and D or L forms follow the SMILES beside them.

Experiments:
[1] = biological target: human CXCL8 (interleukin-8), recombinant, residues 6–77 (human); experiment: NMR titration
[2] = Proteolytic stability in human plasma; assay type: in vitro ADME; conditions: 100 μg in 100 μl human plasma, 37 °C, stopped with 20% TCA; for degradation in human plasma after 18 h: LC-MS/HPLC
Protocol: The proteolytic stability of full-length Evasin-3 and its variants was tested in pooled human plasma from healthy volunteers (Fig. S12A).
100 μg of Evasin-3 variants were dissolved in 100 μl of normal plasma taken from a healthy volunteer and incubated at 37 °C. At a required time point reaction was stopped by addition of 15 μl of 20% TCA to a 15-μl aliquot of a sample and analyzed by LC-MS.

[3] = system: CXCL8-induced migration of polymorphonuclear neutrophils; experiment: PMN migration assay (chemotaxis chamber); assay type: cell-based; conditions: 1 nM CXCL8 plus 10 nM variant; human neutrophils, 5-μm membrane, 90 min at 37 °C; n = 10 (Evasin-3), 9 (tEv3 17–56), 5 (tcEv3 16–56 dPG); CXCL8 alone 624 ± 458, control 98 ± 83
Protocol: To assess the anti-CXCL8 activity of Evasin-3 variants, polymorphonuclear neutrophil (PMN) migration assays were performed. The addition of 1 nM CXCL8 induced significant migration of PMNs (624 ± 458 PMN/mm^2) compared with controls (98 ± 83 PMN/mm^2) in the absence of chemoattractant (Fig. 6). Migration was inhibited by addition of 10 nM of Evasin-3 (206 ± 203 PMN/mm^2).
Human neutrophils were isolated from the blood of healthy donors as described previously ([57]). Isolated neutrophils were resuspended at (10^6 cells/ml) in RPMI 1640 medium supplemented with 1% fetal calf serum. A 12-well chemotaxis chamber with a 5-μm polycarbonate membrane (Neuroprobe, Gaithersburg, MD) was used to assess the migration of neutrophils toward the chemoattractant CXCL8 (1 nM) in presence or absence of Evasin-3 variants (10 nM). The chemoattractant was added in the lower wells, and the neutrophils (1 × 10^5 cells) were seeded in the upper wells. After incubation of 90 min at 37 °C, the nonmigrated cells were carefully removed, and the membrane was stained with Diff-Quick stain (Eberhard Lehmann GmbH, Berlin, Germany). Migrated cells were visualized by light microscopy, counted manually in three fields of view, and expressed as cells/mm^2. The data were analyzed by GraphPad Prism 8.0 software using one-way analysis of variance statistical test.

[4] = biological target: human CXCL8 (interleukin-8), recombinant, residues 6–77 (human); experiment: SEC; protein alone at 0.1 mg/ml; BioSep SEC-s2000; 50 mM sodium phosphate pH 6.65, 150 mM NaCl; masses from the maker's calibration curve
[5] = pooled human plasma from healthy volunteers; conditions: 37 °C, up to 18 h
[6] = biological target: T1, chemically synthetized CXCL8-Biotin (C-terminally biotinylated human CXCL8) (human, UniProt P10145 28-99, biotin at the C-terminus); experiment: SPR; conditions: both partners purified
T1 construct: also called immobilized human CXCL8; source: chemically synthetized; not shown: biotin, C-terminal, kept
T1 sequence (looked up): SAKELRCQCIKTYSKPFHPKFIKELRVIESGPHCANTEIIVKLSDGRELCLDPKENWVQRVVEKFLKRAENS

human CXCL8 = biological target: T2, human CXCL8 (Homo sapiens, UniProt P10145); experiment: SPR biosensor affinity to immobilized CXCL8; assay type: binding; conditions: SPR sensorgrams; association 250 s, dissociation 300 s, 30 μl/min; PBS pH 7.4, 0.05% Tween 20
T2 construct: made in house; host or cells: chemical synthesis (no expression host)
T2 sequence (P10145 21-99): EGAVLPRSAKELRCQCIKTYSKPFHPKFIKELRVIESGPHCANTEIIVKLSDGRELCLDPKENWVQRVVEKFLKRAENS

CXCL8 = conditions: binding to CXCL8; read-out: Kd value previously measured; cited from earlier work
Source text: In contrast to Evasin-1, where both the N and C termini play a crucial role in chemokine binding ([27], [38]), neither the N nor C terminus of Evasin-3 participate in CXCL8 binding. […] To study the effect of termini on binding, we synthesized two novel CXCL8-binding peptides: linear tEv3 17–56 and cyclic tcEv3 16–56 dPG, both retaining the ICK bundled core of the native protein. The ...

[7] = biological target: T3, CXCL8–GAG (fondaparinux) complex (Homo sapiens, UniProt P10145); experiment: GAG competition for [15N,13C]CXCL8 binding by NMR; conditions: 30 μM met-Evasin-3 added to 25 μM [15N,13C]CXCL8 with fondaparinux (up to 10-fold excess), 25 °C, pH 7.1; 15N-1H HSQC
T3 construct: human CXCL8 (UniProt: p10145, 6–77); made in house; host or cells: E. coli BL21 (DE3) Star
T3 sequence (P10145 28-99): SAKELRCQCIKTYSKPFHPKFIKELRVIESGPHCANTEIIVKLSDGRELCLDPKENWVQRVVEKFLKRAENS
Source text: To study competition between Evasin-3 and GAGs for CXCL8 binding, [^15N,^13C]CXCL8 was first titrated with increasing concentrations of dalteparin (Fragmin®, Pfizer) and low-molecular-mass heparin with the average molecular mass of 5 kDa. […] Fondaparinux (Arixtra®, GSK), which comprises the five central sulfated sugar units in heparin, has the well-defined composition and the lower molecular mass (1.7 kDa) comparing with Fragmin. For that reason, fondaparinux facilitates collection of NMR spectra of higher quality and was chosen for further NMR titration experiments. […] Observed changes were consistent with results of previous studies describing the interaction of CXCL8 with several heparin oligosaccharides ([29]).
For GAG-binding experiments low-molecular-mass heparin dalteparin (commercial name Fragmin®, Pfizer) and fondaparinux (commercial name Arixtra®, GSK) were purchased from a pharmacy as solutions for injections. 25 μM of [^15N,^13C]CXCL8 was titrated by increasing concentration of aliquots from a stock solution of 5 mg/ml fondaparinux or Fragmin to the final GAG concentration of 0.2 mM at 25 °C, pH 7.1. In the next step, 30 μM of met-Evasin-3 was added to the solution to monitor the displacement of bound fondaparinux and follow Evasin-3–CXCL8 complex formation by a series of 1D proton and ^15N-^1H HSQC spectra.

[8] = biological target: human CXCL8 (interleukin-8), recombinant, residues 6–77 (human); experiment: NMR titration; [15N,13C]CXCL8 (200 μM) titrated with unlabelled met-Evasin-3; 15N-1H HSQC and filtered NOESY; 25 mM NaAc-d3 pH 4.5, 37 °C; equilibrium after up to 1 h

“truncated Evasin-3 (tEv3 17–56) (from UniProt P0C8E8 37-76) (peptide)” gave a stoichiometry N [1] of 1.

In the case of “cyclo(CFCGLLGQNKKGHCYKIIGN[dP]GNFDVVSCNKNCTSGQNECPEG) (disulfide 1-29, 3-33, 14-40) [tcEv3 16–56 dPG]”, the “degradation in human plasma after 18 h” value [2] is reported as “equally high proteolytic stability” and the “PMN migration in presence of Evasin-3 variant” value [3] is reported as 160 ± 65 PMN/mm^2.

With “human CXCL8 (interleukin-8), recombinant, residues 6–77 (natural protein)” the stoichiometry N [4] was 2.

For CC[C@H](C)[C@H](NC(=O)[C@H](CCCCN)NC(=O)[C@H](Cc1ccc(O)cc1)NC(=O)[C@@H]1CSSC[C@@H]2NC(=O)[C@H](CCC(=O)O)NC(=O)[C@H](CC(N)=O)NC(=O)[C@H](CCC(N)=O)NC(=O)CNC(=O)[C@H](CO)NC(=O)[C@H]([C@@H](C)O)NC(=O)[C@@H]3CSSC[C@H](NC(=O)[C@H](Cc4ccccc4)NC(=O)[C@H](CSSC[C@H](NC(=O)[C@H](CO)NC(=O)[C@@H](NC(=O)[C@@H](NC(=O)[C@H](CC(=O)O)NC(=O)[C@@H](N)Cc4ccccc4)C(C)C)C(C)C)C(=O)N[C@@H](CC(N)=O)C(=O)N[C@@H](CCCCN)C(=O)N[C@@H](CC(N)=O)C(=O)N3)NC(=O)CNC(=O)[C@H](CCC(=O)O)NC(=O)[C@@H]3CCCN3C2=O)C(=O)NCC(=O)N[C@@H](CC(C)C)C(=O)N[C@@H](CC(C)C)C(=O)NCC(=O)N[C@@H](CCC(N)=O)C(=O)N[C@@H](CC(N)=O)C(=O)N[C@@H](CCCCN)C(=O)N[C@@H](CCCCN)C(=O)NCC(=O)N[C@@H](Cc2c[nH]cn2)C(=O)N1)C(=O)N[C@H](C(=O)NCC(=O)N[C@@H](CC(N)=O)C(=O)O)[C@@H](C)CC [tEv3 17–56] (H-FDVVSCNKNCTSGQNECPEGCFCGLLGQNKKGHCYKIIGN-OH; disulfide 6-21, 10-23, 17-34), the “degradation in human plasma after 18 h” value [2] was “equally high proteolytic stability”.

For “LVSTIESRTSGDGADNFDVVSCNKNCTSGQNECPEGCFCGLLGQNKKGHCYKIIGNLSGEPPVVRR”, the cleaved bond [5] was “Arg65-Arg66, 2 h; also recorded: V64-Arg65, 2 h”.

B1: truncated Evasin-3 (tEv3 17–56) (peptide)
chain: FDVVSCNKNCTSGQNECPEGCFCGLLGQNKKGHCYKIIGN
B1 gave a Kd [6] of 27 nM.

B2: Evasin-3: small salivary chemokine-binding protein from the brown dog tick Rhipicephalus sanguineus (UniProt p0c8e8, 1–66) (protein)
chain: LVSTIESRTSGDGADNFDVVSCNKNCTSGQNECPEGCFCGLLGQNKKGHCYKIIGNLSGEPPVVRR
With B2 the “association and dissociation kinetics compared with truncated variants” value (human CXCL8) was “slower association and dissociation kinetics”, the “degradation in human plasma after 2 h” value ([2]; 2 h, LC-MS) was “degraded nearly quantitatively” and the “degradation in human plasma after 18 h” value [2] was “only ΔC2 could be detected”. The Kd (CXCL8) was 0.43 nM and the “PMN migration in presence of Evasin-3 variant” value [3] was 206 ± 203 PMN/mm^2.

B3: met-Evasin-3 (Evasin-3 1–66 with an N-terminal methionine) (natural protein)
chain: MLVSTIESRTSGDGADNFDVVSCNKNCTSGQNECPEGCFCGLLGQNKKGHCYKIIGNLSGEPPVVRR
With B3 the “effect on GAG binding of CXCL8” value [7] was “completely abolished GAG binding” and the stoichiometry N [8] was 1.

B4: truncated cyclic Evasin-3 16–56 with a D-Pro-Gly turn (tcEv3 16–56 dPG) (peptide)
chain: cyclo(NFDVVSCNKNCTSGQNECPEGCFCGLLGQNKKGHCYKIIGN[dP]G)
modifications: ends not checked
B4 showed a Kd [6] of 13 nM.
